Counter-ions that a name gives are not always drawn.
B1: Thermotoga neapolitana (DSM 5068) alkaline phosphatase, purified native enzyme (Thermotoga neapolitana DSM 4359) (protein)
chain: QVKNIIYFIGDGMGLSQAYLTSLIEGRPLSFMKTPYTGLVKTHSVDSWVTDSAAAGTALASGFKTKNGMINVLPDGTRVPTIFEIAKAYGAKTGIVVTCRVTHATPAAFYAHVKSRSEENEIARQLVESETVDLVMGGGWANFLPESLGGKRSDGLNLIEMAKKKGYVYVTKKEDLMKLPENTEKVLALFAPSHLDPASSREEQPMLYEMVKKALEILSNDEEPFFLMVEGSQIDWEAHDNDIYGVWKEVVEFDRAVQVALDFALKRGDTLVIVTADHETGGLALSSGDYRVDVDRIRKFSKTTDWILANYSLKDRESFKKAIEKYFGLTLSDSDLDRITSSNNSKVELGRVLSEKVNVGWTTTSHSGVPVPIYAFGPGAENFTGFLDNTDIPRIMMKLAGYSLQYPLVKEPVK

Tests used:
[1] = biological target: T1, Thermotoga neapolitana (DSM 5068) alkaline phosphatase, purified native enzyme (Thermotoga neapolitana, UniProt B9K6X5); assay: biochemical; settings: 1 h, read-out: original activity detected after exhaustive treatment with EDTA
T1 sequence (B9K6X5 23-436): B1 chain
Method: The initial linear change in the absorbance at 410 nm was detected by recording spectrophotometer (Cary 219, U.S.A.), thermostated at 60° C. One enzyme activity unit represents the hydrolysis of 1 μl mole of substrate per min under these standard assay condition.
The purified alkaline phosphatase in Buffer A was incubated at room temperature for 1 h in the presence of EDTA at 0.0-5.0 mM concentration respectively. The residual enzyme activity was assayed under standard conditions.
For metal ion treatment, 10 mM EDTA was added into a tube containing the purified alkaline phosphatase in Buffer A. After 1 h, the mixture was dialyzed against Buffer A containing 2 mM EDTA and then three times against Buffer A without EDTA. Subsequently, 2 mM of different metal ions were added to the deionized enzyme solutions, and the mixtures were incubated for 1 h at room temperature. For a comparison, 2 mM of various metal ions were added directly to purified protein and incubated under the same conditions. All the metal ions used were in chloride form. The enzyme activity was assayed under standard conditions.

[2] = substrate: O=[N+]([O-])c1ccc(OP(=O)(O)O)cc1; assay: purified protein, by the assay type; settings: other: p-nitrophenyl phosphate as substrate, optimal temperature and pH conditions (85° C., pH 9.9)

Row | Molecule | activity at 10000 µM [1] | Km [2] | Vmax [2]
1 | O=C(O)CN(CCN(CC(=O)O)CC(=O)O)CC(=O)O [EDTA, Ethylenediamine tetraacetic acid disodium salt] | ~5% |  | 
2 | B1 |  | 183 µM | 1352 U/mg
